# In patent US20240228660A1 (IP2IPO INNOVATIONS, published 2024):
# Numbering of substitutions follows the chain as printed.
# B1: 1-A2_VH-par_VL-par (antibody, human IgG1, kappa)
# heavy chain: not shown
# light chain: AIEMTQTPPSLSASVGETVRIRCLASEDIYSGISWYQQKPGKPPTLLIYGASNLESGVPPRFSGSGSGTDYTLTIGGVQAEDAATYYCLGGHSHSTTDLTFGAGTKVEIKTVAAPSVFIFPPSDEQLKSGTASVVCLLNNFYPREAKVQWKVDNALQSGNSQESVTEQDSKDSTYSLSSTLTLSKADYEKHKVYACEVTHQGLSSPVTKSFNRGEC
# notes: also called 1-A2_parental (hIgG1)
# B2: 4-H3_H5_VL-par (antibody, human IgG1, kappa)
# heavy chain: not shown
# light chain: B1 light chain with I2Y, E3D, Y30A, H92Y, H94F, T96S, T97N, D98G
# notes: also called 4-H3_H5 (hIgG1)
# B3: 4-H3_H7_VL-par (antibody, human IgG1, kappa, V domains shown)
# VH: QVQLVESGGGVVQPGRSLRLSCAASGIDLTSNAMNWVRQAPGKGLEWIGGIYGHDTSYYAAWAKGRFTISRDNSKNTVYLQMNSLRAEDTATYFCARGFIYFDIWGQGTLVTVSS
# VL: AYDMTQTPPSLSASVGETVRIRCLASEDIASGISWYQQKPGKPPTLLIYGASNLESGVPPRFSGSGSGTDYTLTIGGVQAEDAATYYCLGGYSFSSNGLTFGAGTKVEIKT
# notes: also called 4-H3_H7 (hIgG1)
# B4: 1-A2_H1_VL-par (antibody, human IgG1, kappa, V domains shown)
# VH: B3 VH with I48V, G49A, V78L, T92V, F94Y
# VL: B3 VL with Y2I, D3E, A30Y, Y92H, F94H, S96T, N97T, G98D
# notes: also called 1-A2_H1 (hIgG1)
# B5: 4-H3_VH-par_VL-par (antibody, human IgG1, kappa)
# heavy chain: not shown
# light chain: B1 light chain with I2Y, E3D, Y30A, H92Y, H94F, T96S, T97N, D98G
# notes: also called 4-H3_parental (hIgG1)
# B6: 1-A2_H0_VL-par (antibody, human IgG1, kappa, V domains shown)
# VH: B3 VH with I27F, D28T, L29F, T30S, I48V, G49A, V78L, T92V, F94Y
# VL: B3 VL with Y2I, D3E, A30Y, Y92H, F94H, S96T, N97T, G98D
# notes: also called 1-A2_H0 (hIgG1)
# B7: 4-H3_H8_VL-par (antibody, human IgG1, kappa, V domains shown)
# VH: QQLVESGGGVVQPGRSLRLSCAASGIDLTSNAMNWVRQAPGKGLEWIGGIYGHDTSYYAAWAKGRFTISRDSNTVYLQMNSLRAEDTATYFCARGFIYFDIWGQGTLVTVSS
# VL: B3 VL
# notes: also called 4-H3_H8 (hIgG1)
# B8: 1-A2_H2_VL-par (antibody, human IgG1, kappa, V domains shown)
# VH: B7 VH
# VL: B3 VL with Y2I, D3E, A30Y, Y92H, F94H, S96T, N97T, G98D
# notes: also called 1-A2_H2 (hIgG1)
# B9: 4-H3_H6_VL-par rep (antibody, human IgG1, kappa)
# heavy chain: not shown
# light chain: B1 light chain with I2Y, E3D, Y30A, H92Y, H94F, T96S, T97N, D98G
# notes: also called 4-H3_H6 (hIgG1)
# B10: 1-A2_VH-par_L1 (antibody, human IgG1, kappa, V domains shown)
# VH: SQSVEESGGRLVPPGTPLTLTCTVSGIDLTSNAMNWVRQAPGKGLEWIGGIYGHDTSYYAAWAKGRFTISRTSTTVDLKMTRPTTDDTATYFCARGFIYFDIWGTGTLVTISS
# VL: DIQMTQSPSSLSASVGDRVTITCLASEDIYSGISWYQQKPGKAPKLLIYGASNLESGVPSRFSGSGSGTDYTLTISSLQPEDFATYYCLGGHSHSTTDLTFGGGTKVEIKT
# notes: also called 1-A2_L1 (hIgG1K)
# B11: 4-H3_H8_L0 (antibody, human IgG1, kappa, V domains shown)
# VH: B7 VH
# VL: B10 VL with Y30A, Y71F, H92Y, H94F, T96S, T97N, D98G
# notes: humanised, human IgG1 kappa
# B12: 4-H3_VH-par_L1 (antibody, human IgG1, kappa, V domains shown)
# VH: B10 VH with V4L
# VL: B10 VL with I2Y, Y30A, H92Y, H94F, T96S, T97N, D98G
# notes: also called 4-H3_L1 (hIgG1K)
# B13: 1-A2_H1_L1 (antibody, human IgG1, kappa, V domains shown)
# VH: B3 VH with I48V, G49A, V78L, T92V, F94Y
# VL: B10 VL
# notes: humanised, human IgG1 kappa
# B14: 1-A2_VH-par_L0 (antibody, human IgG1, kappa, V domains shown)
# VH: B10 VH
# VL: B10 VL with Y71F
# notes: also called 1-A2_L0 (hIgG1K)
# B15: 1-A2_H2_L1 (antibody, human IgG1, kappa, V domains shown)
# VH: B7 VH
# VL: B10 VL
# notes: humanised, human IgG1 kappa
# B16: 4-H3_H8_L1 (antibody, human IgG1, kappa, V domains shown)
# VH: B7 VH
# VL: B10 VL with I2Y, Y30A, H92Y, H94F, T96S, T97N, D98G
# notes: humanised, human IgG1 kappa
# B17: 4-H3_VH-par_L0 (antibody, human IgG1, kappa, V domains shown)
# VH: B10 VH with V4L
# VL: B10 VL with Y30A, Y71F, H92Y, H94F, T96S, T97N, D98G
# notes: also called 4-H3_L0 (hIgG1K)
# B18: 1-A2_H1_L0 (antibody, human IgG1, kappa, V domains shown)
# VH: B3 VH with I48V, G49A, V78L, T92V, F94Y
# VL: B10 VL with Y71F
# notes: humanised, human IgG1 kappa
# B19: 1-A2_H0_L0 (antibody, human IgG1, kappa, V domains shown)
# VH: B3 VH with I27F, D28T, L29F, T30S, I48V, G49A, V78L, T92V, F94Y
# VL: B10 VL with Y71F
# notes: humanised, human IgG1 kappa
# B20: 1-A2_H0_L1 (antibody, human IgG1, kappa, V domains shown)
# VH: B3 VH with I27F, D28T, L29F, T30S, I48V, G49A, V78L, T92V, F94Y
# VL: B10 VL
# notes: humanised, human IgG1 kappa
# B21: 1-A2_H2_L0 (antibody, human IgG1, kappa, V domains shown)
# VH: B7 VH
# VL: B10 VL with Y71F
# notes: humanised, human IgG1 kappa
# B22: 4-H3_H2_VL-par (antibody, human IgG1, kappa)
# heavy chain: not shown
# light chain: B1 light chain with I2Y, E3D, Y30A, H92Y, H94F, T96S, T97N, D98G
# notes: also called 4-H3_H2 (hIgG1)
# B23: 4-H3_H1_VL-par (antibody, human IgG1, kappa)
# heavy chain: not shown
# light chain: B1 light chain with I2Y, E3D, Y30A, H92Y, H94F, T96S, T97N, D98G
# notes: also called 4-H3_H1 (hIgG1)
# B24: 4-H3_H0_VL-par (antibody, human IgG1, kappa, V domains shown)
# VH: B3 VH with I27F, D28T, L29F, T30S, I48V, G49A, V78L, T92V, F94Y
# VL: B3 VL
# notes: also called 4-H3_H0 (hIgG1)
# B25: 4-H3_H3_VL-par (antibody, human IgG1, kappa, V domains shown)
# VH: B3 VH with T92V, F94Y
# VL: B3 VL
# notes: also called 4-H3_H3 (hIgG1)
# B26: 1-D5_VH-par_VL-par (antibody, human IgG1, kappa)
# heavy chain: not shown
# light chain: DIVMTQTPSSVSAAVGDTVTIQCQASQSINSGLAWYQQKPGQPPKRLIYKASTLASGVPSRFRGSGSGTDFTLTISDLECADAATYYCQSYHYISANGATFGGGTEVVVETVAAPSVFIFPPSDEQLKSGTASVVCLLNNFYPREAKVQWKVDNALQSGNSQESVTEQDSKDSTYSLSSTLTLSKADYEKHKVYACEVTHQGLSSPVTKSFNRGEC
# notes: also called 1-D5_parental (hIgG1)
# B27: 1-D5_VH-par_L1 (antibody, human IgG1, kappa, V domains shown)
# VH: QQQLVESGGRLVTPGTPLTLTCAVSGFSLNNYIMGWVRQAPGKGLEYIGIISTGGSTYYASWAKGRFTISRTSTTMDLKMTSLTTEDTATYFCARGGSSAGAGFNIWGPGTLVTVSS
# VL: DIQMTQSPSSLSASVGDRVTITCQASQSINSGLAWYQQKPGKAPKRLIYKASTLASGVPSRFSGSGSGTDFTLTISSLQPEDFATYYCQSYHYISANGATFGGGTKVEIKT
# notes: also called 1-D5_L1 (hIgG1K)
# B28: 1-D5_VH-par_L0 (antibody, human IgG1, kappa, V domains shown)
# VH: B27 VH
# VL: B27 VL with R46L
# notes: also called 1-D5_L0 (hIgG1K)
# Target: T1, human full-length VWF (human, UniProt P04275 764-2813)
# Experiment: SPR, Biacore T200, antibody captured on Protein A, full-length VWF as analyte, single-cycle kinetics
# Experimental: (§1) Antibodies were captured on Protein A sensor chip. The system was purged using running buffer (10 mM HEPES pH 7.4, 300 mM NaCl, 3 mM EDTA, 0.05% P20) and a series S Protein A chip was docked in the Biacore T200. The surface was conditioned with 10 mM glycine-HCl pH 1.5 regeneration solution (3 injections). Each antibody was diluted to ˜0.8 μg/ml in running buffer to capture ˜350 RU on flow cells 2, 3 and 4 (flow cell 1 used as in-line reference cell). Single-cycle kinetic analysis of human full-length VWF binding to antibodies was performed using the following parameters:
Binder,Kd [nM],koff [s⁻¹],kon [M⁻¹ s⁻¹]
B1,0.000125,–,–
B2,0.0161,4.34e-07,26900
B3,0.0104,3.05e-07,29300
B4,0.0238,9.49e-07,39800
B5,0.0717,–,–
B6,0.0176,6.18e-07,35100
B7,0.0109,5.99e-07,54900
B8,0.318,7.8e-06,24500
B9,0.00655,3.63e-07,55300
B10,0.00707,1.81e-07,25600
B11,0.0125,5.66e-07,45200
B12,0.00143,1.75e-08,12300
B13,0.00589,1.4e-07,23800
B14,0.0125,7.44e-07,59600
B15,0.00203,3.84e-08,19000
B16,0.0173,9.15e-07,52800
B17,0.00173,8.46e-08,48800
B18,0.0187,6.54e-07,34900
B19,0.000231,2.74e-08,119000
B20,0.0432,2.73e-06,63200
B21,0.0969,3.5e-06,36100

# Target: T1, human full-length VWF
# Experiment: as above
# Remark: another data set of the same source
# Experimental: as §1
Binder,Kd [nM],koff [s⁻¹],kon [M⁻¹ s⁻¹]
B22,0.0194,1.75e-06,90000
B23,0.00664,1.87e-07,28200
B24,0.0131,2.89e-07,22100
B25,0.0294,1.59e-06,54200
B26,0.0223,–,–
B27,0.0824,7.91e-06,96000
B28,0.05,6.59e-06,132000
